{
  "source": "patent US20100166827A1",
  "biological_target": "αVβ1/3/5 integrins located in the cardiomyocyte cell membrane",
  "test": "cell-based or functional assay",
  "data": [
    {"substance": "Recombinant periostin, purified from HEK293 cells expressing the full-length human cDNA (from UniProt Q15063 22-836) (ligand)", "values": [
      {"measurement": "half-maximal stimulation of DNA synthesis in primary neonatal rat ventricular cardiomyocytes (BrdU uptake)", "value": 155, "unit": "nM"}
    ]}
  ]
}
